Measured values from PMC7227451 (Cellular and Molecular Immunology, 2020).

Target: T1, SARS-CoV-2 RBD-hFc (SARS-CoV-2, UniProt P0DTC2)
T1 construct: not shown: Fc (human IgG1), C-terminal, kept
Experiment: ELISA
Conditions: both partners purified

B1: 80R (antibody, V domains shown)
VH: EVQLVQSGGGVVQPGKSLRLSCAASGFAFSSYAMHWVRQAPGKGLEWVAVISYDGSNKYYADSVKGRFTISRDNSKNTLYLQMNSLRAEDTAVYYCARDRSYYLDYWGQGTLVTVSS
VL: ETTLTQSPATLSLSPGERATLSCRASQSVRSNLAWYQQKPGQAPRPLIYDASTRATGIPDRFSGSGSGTDFTLTISRLEPEDFAVYYCQQRSNWPPTFGQGTKVEVK
Question: Does B1 bind?
Answer: Result: no binding
